In patent US20110318339A1:

How the values were obtained:
[1] = biological target: rHuman EGF R/Fc Chimera, CF (Cat# 344-ER) (human) (UniProt P00533); test: Multispot ECL; Fab 85.0 nM
[2] = biological target: rHuman IGF-1 sR, (IGF-1 sR), CF (Cat# 391-GR) (human) (UniProt P08069); test: Multispot ECL; Fab 85.0 nM
[3] = biological target: rHuman HGF R/c-MET/Fc Chimera, CF (Cat# 358-MT/CF) (human) (UniProt P08581); test: Multispot ECL; Fab 85.0 nM
[4] = biological target: rHuman Notch-1/Fc Chimera, CF (Cat# 3647-TK) (human) (UniProt P46531); test: Multispot ECL; Fab 85.0 nM
[5] = biological target: rHuman Erythropoietin R/Fc Chimera, CF (Cat# 963-ER) (human) (UniProt P19235); test: Multispot ECL; Fab 85.0 nM
[6] = biological target: rHuman P-Cadherin/Fc Chimera, CF (Cat# 861-PC) (human) (UniProt P22223); test: Multispot ECL; Fab 85.0 nM
[7] = biological target: rHuman CD44/Fc Chimera, CF (Cat# 3660-CD) (human) (UniProt P16070); test: Multispot ECL; Fab 85.0 nM
[8] = biological target: rHuman ErbB2/Fc Chimera, CF (Cat# 1129-ER) (human) (UniProt P04626); test: Multispot ECL; Fab 85.0 nM
[9] = biological target: rHuman EGF R/Fc Chimera, CF (Cat# 344-ER) (human) (UniProt P00533); test: Multispot ECL; Fab […]
[10] = biological target: rHuman IGF-1 sR, (IGF-1 sR), CF (Cat# 391-GR) (human) (UniProt P08069); test: Multispot ECL; Fab […]
[11] = biological target: rHuman HGF R/c-MET/Fc Chimera, CF (Cat# 358-MT/CF) (human) (UniProt P08581); test: Multispot ECL; Fab […]
[12] = biological target: rHuman Notch-1/Fc Chimera, CF (Cat# 3647-TK) (human) (UniProt P46531); test: Multispot ECL; Fab […]
[13] = biological target: rHuman Erythropoietin R/Fc Chimera, CF (Cat# 963-ER) (human) (UniProt P19235); test: Multispot ECL; Fab […]
[14] = biological target: rHuman P-Cadherin/Fc Chimera, CF (Cat# 861-PC) (human) (UniProt P22223); test: Multispot ECL; Fab […]
[15] = biological target: rHuman CD44/Fc Chimera, CF (Cat# 3660-CD) (human) (UniProt P16070); test: Multispot ECL; Fab […]
[16] = biological target: rHuman ErbB2/Fc Chimera, CF (Cat# 1129-ER) (human) (UniProt P04626); test: Multispot ECL; Fab […]
[17] = biological target: rHuman EGF R/Fc Chimera, CF (Cat# 344-ER) (human) (UniProt P00533); test: Multispot ECL; Fab 170 nM
[18] = biological target: rHuman IGF-1 sR, (IGF-1 sR), CF (Cat# 391-GR) (human) (UniProt P08069); test: Multispot ECL; Fab 170 nM
[19] = biological target: rHuman HGF R/c-MET/Fc Chimera, CF (Cat# 358-MT/CF) (human) (UniProt P08581); test: Multispot ECL; Fab 170 nM
[20] = biological target: rHuman Notch-1/Fc Chimera, CF (Cat# 3647-TK) (human) (UniProt P46531); test: Multispot ECL; Fab 170 nM
[21] = biological target: rHuman Erythropoietin R/Fc Chimera, CF (Cat# 963-ER) (human) (UniProt P19235); test: Multispot ECL; Fab 170 nM
[22] = biological target: rHuman P-Cadherin/Fc Chimera, CF (Cat# 861-PC) (human) (UniProt P22223); test: Multispot ECL; Fab 170 nM
[23] = biological target: rHuman CD44/Fc Chimera, CF (Cat# 3660-CD) (human) (UniProt P16070); test: Multispot ECL; Fab 170 nM
[24] = biological target: rHuman ErbB2/Fc Chimera, CF (Cat# 1129-ER) (human) (UniProt P04626); test: Multispot ECL; Fab 170 nM
[25] = biological target: rHuman EGF R/Fc Chimera, CF (Cat# 344-ER) (human) (UniProt P00533); test: Multispot ECL; Fab 340 nM
[26] = biological target: rHuman IGF-1 sR, (IGF-1 sR), CF (Cat# 391-GR) (human) (UniProt P08069); test: Multispot ECL; Fab 340 nM
[27] = biological target: rHuman HGF R/c-MET/Fc Chimera, CF (Cat# 358-MT/CF) (human) (UniProt P08581); test: Multispot ECL; Fab 340 nM
[28] = biological target: rHuman Notch-1/Fc Chimera, CF (Cat# 3647-TK) (human) (UniProt P46531); test: Multispot ECL; Fab 340 nM
[29] = biological target: rHuman Erythropoietin R/Fc Chimera, CF (Cat# 963-ER) (human) (UniProt P19235); test: Multispot ECL; Fab 340 nM
[30] = biological target: rHuman P-Cadherin/Fc Chimera, CF (Cat# 861-PC) (human) (UniProt P22223); test: Multispot ECL; Fab 340 nM
[31] = biological target: rHuman CD44/Fc Chimera, CF (Cat# 3660-CD) (human) (UniProt P16070); test: Multispot ECL; Fab 340 nM
[32] = biological target: rHuman ErbB2/Fc Chimera, CF (Cat# 1129-ER) (human) (UniProt P04626); test: Multispot ECL; Fab 340 nM

rHuman Erythropoietin R/Fc Chimera, CF (Cat# 963-ER) (human), sequence (P19235 25-250, change not shown): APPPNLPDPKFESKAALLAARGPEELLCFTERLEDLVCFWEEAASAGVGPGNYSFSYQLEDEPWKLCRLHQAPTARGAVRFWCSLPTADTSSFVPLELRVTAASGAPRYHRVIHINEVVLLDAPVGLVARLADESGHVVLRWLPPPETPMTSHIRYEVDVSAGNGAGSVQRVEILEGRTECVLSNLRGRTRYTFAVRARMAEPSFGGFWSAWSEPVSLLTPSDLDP

Fab VH4-34_IGHD7-27*01_IGHJ4*01 & V4-6_IGLJ4*01
ECL signal [1]: 1000 | ECL signal [2]: 891 | ECL signal [3]: 998 | ECL signal [4]: 780 | ECL signal [5]: 817 | ECL signal [6]: 709 | ECL signal [7]: 693 | ECL signal [8]: 844 | ECL signal [9]: 528 | ECL signal [10]: 646 | ECL signal [11]: 607 | ECL signal [12]: 649 | ECL signal [13]: 494 | ECL signal [14]: 421 | ECL signal [15]: 522 | ECL signal [16]: 866 | ECL signal [17]: 826 | ECL signal [18]: 832 | ECL signal [19]: 757 | ECL signal [20]: 816 | ECL signal [21]: 790 | ECL signal [22]: 744 | ECL signal [23]: 660 | ECL signal [24]: 964 | ECL signal [25]: 1210 | ECL signal [26]: 1040 | ECL signal [27]: 1240 | ECL signal [28]: 1210 | ECL signal [29]: 1260 | ECL signal [30]: 1160 | ECL signal [31]: 959 | ECL signal [32]: 1230
